Here are results for 20 molecules from patent US20230021388A1 (VELOSBIO, published 2023).

The chains are these.
B1: Ab1 Fab variant H1 A30P (Fab, V domains shown)
VH: QVQLQESGPGLVKPSQTLSLTCTVSGYPFTAYNIHWVRQAPGQGLEWMGSFDPYDGGSSYNQKFKDRLTISKDTSKNQVVLTMTNMDPVDTATYYCARGWYYFDYWGHGTLVTVSS
VL: DIVMTQTPLSLPVTPGEPASISCRASKSISKYLAWYQQKPGQAPRLLIYSGSTLQSGIPPRFSGSGYGTDFTLTINNIESEDAAYYFCQQHDESPYTFGEGTKVEIK
notes: Fab
B2: Ab1 Fab variant H2 G66H (Fab, V domains shown)
VH: QVQLQESGPGLVKPSQTLSLTCTVSGYAFTAYNIHWVRQAPGQGLEWMGSFDPYDHGSSYNQKFKDRLTISKDTSKNQVVLTMTNMDPVDTATYYCARGWYYFDYWGHGTLVTVSS
VL: DIVMTQTPLSLPVTPGEPASISCRASKSISKYLAWYQQKPGQAPRLLIYSGSTLQSGIPPRFSGSGYGTDFTLTINNIESEDAAYYFCQQHDESPYTFGEGTKVEIK
notes: Fab
B3: Ab1 Fab variant H2 F58V (Fab, V domains shown)
VH: QVQLQESGPGLVKPSQTLSLTCTVSGYAFTAYNIHWVRQAPGQGLEWMGSVDPYDGGSSYNQKFKDRLTISKDTSKNQVVLTMTNMDPVDTATYYCARGWYYFDYWGHGTLVTVSS
VL: DIVMTQTPLSLPVTPGEPASISCRASKSISKYLAWYQQKPGQAPRLLIYSGSTLQSGIPPRFSGSGYGTDFTLTINNIESEDAAYYFCQQHDESPYTFGEGTKVEIK
notes: Fab
B4: Ab1 Fab variant H1 A30T (Fab, V domains shown)
VH: QVQLQESGPGLVKPSQTLSLTCTVSGYTFTAYNIHWVRQAPGQGLEWMGSFDPYDGGSSYNQKFKDRLTISKDTSKNQVVLTMTNMDPVDTATYYCARGWYYFDYWGHGTLVTVSS
VL: DIVMTQTPLSLPVTPGEPASISCRASKSISKYLAWYQQKPGQAPRLLIYSGSTLQSGIPPRFSGSGYGTDFTLTINNIESEDAAYYFCQQHDESPYTFGEGTKVEIK
notes: Fab
B5: Ab1 Fab variant H2 G67K (Fab, V domains shown)
VH: QVQLQESGPGLVKPSQTLSLTCTVSGYAFTAYNIHWVRQAPGQGLEWMGSFDPYDGKSSYNQKFKDRLTISKDTSKNQVVLTMTNMDPVDTATYYCARGWYYFDYWGHGTLVTVSS
VL: DIVMTQTPLSLPVTPGEPASISCRASKSISKYLAWYQQKPGQAPRLLIYSGSTLQSGIPPRFSGSGYGTDFTLTINNIESEDAAYYFCQQHDESPYTFGEGTKVEIK
notes: Fab
B6: Ab1 Fab variant H2 G66N (Fab, V domains shown)
VH: QVQLQESGPGLVKPSQTLSLTCTVSGYAFTAYNIHWVRQAPGQGLEWMGSFDPYDNGSSYNQKFKDRLTISKDTSKNQVVLTMTNMDPVDTATYYCARGWYYFDYWGHGTLVTVSS
VL: DIVMTQTPLSLPVTPGEPASISCRASKSISKYLAWYQQKPGQAPRLLIYSGSTLQSGIPPRFSGSGYGTDFTLTINNIESEDAAYYFCQQHDESPYTFGEGTKVEIK
notes: Fab
B7: Ab1 Fab variant H2 G66D (Fab, V domains shown)
VH: QVQLQESGPGLVKPSQTLSLTCTVSGYAFTAYNIHWVRQAPGQGLEWMGSFDPYDDGSSYNQKFKDRLTISKDTSKNQVVLTMTNMDPVDTATYYCARGWYYFDYWGHGTLVTVSS
VL: DIVMTQTPLSLPVTPGEPASISCRASKSISKYLAWYQQKPGQAPRLLIYSGSTLQSGIPPRFSGSGYGTDFTLTINNIESEDAAYYFCQQHDESPYTFGEGTKVEIK
notes: Fab
B8: Ab1 Fab variant H1 A33S (Fab, V domains shown)
VH: QVQLQESGPGLVKPSQTLSLTCTVSGYAFTSYNIHWVRQAPGQGLEWMGSFDPYDGGSSYNQKFKDRLTISKDTSKNQVVLTMTNMDPVDTATYYCARGWYYFDYWGHGTLVTVSS
VL: DIVMTQTPLSLPVTPGEPASISCRASKSISKYLAWYQQKPGQAPRLLIYSGSTLQSGIPPRFSGSGYGTDFTLTINNIESEDAAYYFCQQHDESPYTFGEGTKVEIK
notes: Fab
B9: Ab1 Fab variant H1 F31I (Fab, V domains shown)
VH: QVQLQESGPGLVKPSQTLSLTCTVSGYAITAYNIHWVRQAPGQGLEWMGSFDPYDGGSSYNQKFKDRLTISKDTSKNQVVLTMTNMDPVDTATYYCARGWYYFDYWGHGTLVTVSS
VL: DIVMTQTPLSLPVTPGEPASISCRASKSISKYLAWYQQKPGQAPRLLIYSGSTLQSGIPPRFSGSGYGTDFTLTINNIESEDAAYYFCQQHDESPYTFGEGTKVEIK
notes: Fab
B10: Ab1 Fab variant H1 A33M (Fab, V domains shown)
VH: QVQLQESGPGLVKPSQTLSLTCTVSGYAFTMYNIHWVRQAPGQGLEWMGSFDPYDGGSSYNQKFKDRLTISKDTSKNQVVLTMTNMDPVDTATYYCARGWYYFDYWGHGTLVTVSS
VL: DIVMTQTPLSLPVTPGEPASISCRASKSISKYLAWYQQKPGQAPRLLIYSGSTLQSGIPPRFSGSGYGTDFTLTINNIESEDAAYYFCQQHDESPYTFGEGTKVEIK
notes: Fab
B11: Ab1 Fab variant H1 G27N (Fab, V domains shown)
VH: QVQLQESGPGLVKPSQTLSLTCTVSNYAFTAYNIHWVRQAPGQGLEWMGSFDPYDGGSSYNQKFKDRLTISKDTSKNQVVLTMTNMDPVDTATYYCARGWYYFDYWGHGTLVTVSS
VL: DIVMTQTPLSLPVTPGEPASISCRASKSISKYLAWYQQKPGQAPRLLIYSGSTLQSGIPPRFSGSGYGTDFTLTINNIESEDAAYYFCQQHDESPYTFGEGTKVEIK
notes: Fab
B12: Ab1 Fab variant H2 D76V (Fab, V domains shown)
VH: QVQLQESGPGLVKPSQTLSLTCTVSGYAFTAYNIHWVRQAPGQGLEWMGSFDPYDGGSSYNQKFKVRLTISKDTSKNQVVLTMTNMDPVDTATYYCARGWYYFDYWGHGTLVTVSS
VL: DIVMTQTPLSLPVTPGEPASISCRASKSISKYLAWYQQKPGQAPRLLIYSGSTLQSGIPPRFSGSGYGTDFTLTINNIESEDAAYYFCQQHDESPYTFGEGTKVEIK
notes: Fab
B13: Ab1 Fab variant H2 D65E (Fab, V domains shown)
VH: QVQLQESGPGLVKPSQTLSLTCTVSGYAFTAYNIHWVRQAPGQGLEWMGSFDPYEGGSSYNQKFKDRLTISKDTSKNQVVLTMTNMDPVDTATYYCARGWYYFDYWGHGTLVTVSS
VL: DIVMTQTPLSLPVTPGEPASISCRASKSISKYLAWYQQKPGQAPRLLIYSGSTLQSGIPPRFSGSGYGTDFTLTINNIESEDAAYYFCQQHDESPYTFGEGTKVEIK
notes: Fab
B14: Ab1 Fab variant H1 Y29G (Fab, V domains shown)
VH: QVQLQESGPGLVKPSQTLSLTCTVSGGAFTAYNIHWVRQAPGQGLEWMGSFDPYDGGSSYNQKFKDRLTISKDTSKNQVVLTMTNMDPVDTATYYCARGWYYFDYWGHGTLVTVSS
VL: DIVMTQTPLSLPVTPGEPASISCRASKSISKYLAWYQQKPGQAPRLLIYSGSTLQSGIPPRFSGSGYGTDFTLTINNIESEDAAYYFCQQHDESPYTFGEGTKVEIK
notes: Fab
B15: Ab1 Fab variant H1 N40P (Fab, V domains shown)
VH: QVQLQESGPGLVKPSQTLSLTCTVSGYAFTAYPIHWVRQAPGQGLEWMGSFDPYDGGSSYNQKFKDRLTISKDTSKNQVVLTMTNMDPVDTATYYCARGWYYFDYWGHGTLVTVSS
VL: DIVMTQTPLSLPVTPGEPASISCRASKSISKYLAWYQQKPGQAPRLLIYSGSTLQSGIPPRFSGSGYGTDFTLTINNIESEDAAYYFCQQHDESPYTFGEGTKVEIK
notes: Fab
B16: Ab1 Fab variant H2 G66E (Fab, V domains shown)
VH: QVQLQESGPGLVKPSQTLSLTCTVSGYAFTAYNIHWVRQAPGQGLEWMGSFDPYDEGSSYNQKFKDRLTISKDTSKNQVVLTMTNMDPVDTATYYCARGWYYFDYWGHGTLVTVSS
VL: DIVMTQTPLSLPVTPGEPASISCRASKSISKYLAWYQQKPGQAPRLLIYSGSTLQSGIPPRFSGSGYGTDFTLTINNIESEDAAYYFCQQHDESPYTFGEGTKVEIK
notes: Fab
B17: Ab1 Fab variant H1 Y39W (Fab, V domains shown)
VH: QVQLQESGPGLVKPSQTLSLTCTVSGYAFTAWNIHWVRQAPGQGLEWMGSFDPYDGGSSYNQKFKDRLTISKDTSKNQVVLTMTNMDPVDTATYYCARGWYYFDYWGHGTLVTVSS
VL: DIVMTQTPLSLPVTPGEPASISCRASKSISKYLAWYQQKPGQAPRLLIYSGSTLQSGIPPRFSGSGYGTDFTLTINNIESEDAAYYFCQQHDESPYTFGEGTKVEIK
notes: Fab
B18: Ab1 Fab variant H2 F58I (Fab, V domains shown)
VH: QVQLQESGPGLVKPSQTLSLTCTVSGYAFTAYNIHWVRQAPGQGLEWMGSIDPYDGGSSYNQKFKDRLTISKDTSKNQVVLTMTNMDPVDTATYYCARGWYYFDYWGHGTLVTVSS
VL: DIVMTQTPLSLPVTPGEPASISCRASKSISKYLAWYQQKPGQAPRLLIYSGSTLQSGIPPRFSGSGYGTDFTLTINNIESEDAAYYFCQQHDESPYTFGEGTKVEIK
notes: Fab
B19: Ab1 Fab variant H1 Y39F (Fab, V domains shown)
VH: QVQLQESGPGLVKPSQTLSLTCTVSGYAFTAFNIHWVRQAPGQGLEWMGSFDPYDGGSSYNQKFKDRLTISKDTSKNQVVLTMTNMDPVDTATYYCARGWYYFDYWGHGTLVTVSS
VL: DIVMTQTPLSLPVTPGEPASISCRASKSISKYLAWYQQKPGQAPRLLIYSGSTLQSGIPPRFSGSGYGTDFTLTINNIESEDAAYYFCQQHDESPYTFGEGTKVEIK
notes: Fab
B20: Ab1 Fab variant H1 F31V (Fab, V domains shown)
VH: QVQLQESGPGLVKPSQTLSLTCTVSGYAVTAYNIHWVRQAPGQGLEWMGSFDPYDGGSSYNQKFKDRLTISKDTSKNQVVLTMTNMDPVDTATYYCARGWYYFDYWGHGTLVTVSS
VL: DIVMTQTPLSLPVTPGEPASISCRASKSISKYLAWYQQKPGQAPRLLIYSGSTLQSGIPPRFSGSGYGTDFTLTINNIESEDAAYYFCQQHDESPYTFGEGTKVEIK
notes: Fab

T1 sequence (Q01973 30-406 limits assumed): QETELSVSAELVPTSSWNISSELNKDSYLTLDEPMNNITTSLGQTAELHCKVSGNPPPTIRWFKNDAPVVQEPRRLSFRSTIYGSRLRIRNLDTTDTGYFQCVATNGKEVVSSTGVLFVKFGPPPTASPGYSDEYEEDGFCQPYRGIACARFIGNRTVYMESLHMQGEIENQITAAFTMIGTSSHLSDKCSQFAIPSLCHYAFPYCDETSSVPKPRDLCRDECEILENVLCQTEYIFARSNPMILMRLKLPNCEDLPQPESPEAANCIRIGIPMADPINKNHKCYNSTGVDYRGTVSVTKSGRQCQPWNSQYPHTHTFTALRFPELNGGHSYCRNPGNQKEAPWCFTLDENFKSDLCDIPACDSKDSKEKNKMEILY

The experiment concerns the target T1, recombinant human ROR1 extracellular domain (human, UniProt Q01973 30-406).
T1 construct: biotinylated for the filter lifts; also called huROR1-ECD; human ROR1-ECD
Briefly: ELISA, soluble Fab on coated huROR1-ECD. As to the method:
The previously described filter lift assay provides a visual, qualitative assessment of antigen binding (Example 1). In order to assess the ROR1 binding activity of Ab1 Fab in a more quantitative fashion, an ELISA assay was developed. A 96-well Costar-3366 plate was coated with 50 μL/well of 1 μg/mL human ROR1-ECD (ACROBiosystems, cat. #RO1-H522y) in PBS overnight at 4° C. The plate was rinsed once with PBS-T and blocked with 100 μL/well of 5% M-P for 1 h at 25° C. Fab samples were serially diluted 3-fold using 5% M-P and 50 μL/well was incubated for 1 h at 25° C. The plate was washed three times with PBS-T and 50 μL/well anti-human kappa, and HRP conjugate (Southern Biotech, cat. #2060-05) diluted 10,000-fold in 5% M-P was added for 1 h at 25° C. In certain assays (extended wash format), the plate was placed in large volumes (up to 1 L) of PBS-T and incubated, with mixing, for 2-5 h prior to the addition of anti-human kappa, HRP conjugate. The plate was washed three times with PBS-T, and developed with 50 μL/well 1-Step Ultra TMB-ELISA (Thermo Scientific, cat. #34028). The reaction was terminated by the addition of 2 N H2504 and the A450 was determined using a Spectramax plate reader.
B1: the Kd is 12 nM. To B2 belongs 1.4 nM; to B3, 0.9 nM. For B4 the value was 16 nM; for B5, 2.3 nM; for B6, 2.2 nM. Take B7: the Kd is 2.2 nM. In the case of B8, the Kd stood at 11 nM. Consider B9, for which the Kd amounted to 5.8 nM. For B10 the value was 15 nM; for B11, 8.4 nM. To B12 belongs 1.8 nM; to B13, 4.9 nM; to B14, 7.1 nM.

As for B15, the Kd was determined as 40 nM. For B16 the value was 0.9 nM; for B17, 3.3 nM; for B18, 1.8 nM. To B19 belongs 5.7 nM; to B20, 8.3 nM.
